Data taken from the RNAGym collection of RNA variant scans (doi:10.1073/pnas.2313332121).

B1: TPR t1 (parent)
chain: GACCAAUCUGCCCUCAGAGCUCGAGAACAUCUUCGGAUGCAGAGGAGGCAGGCUUCGGUGGCGCGAUAGCGCCAACGUCCUCAACCUCCAAUGCAUCCCACCACAUGAUGAUGCCUGAAGAGCCUUGGUUUUUUG

Variants of: B1
Assay: polymerase ribozyme fitness, log enrichment relative to wild type (log ratio); higher = more active; in vitro selection for triplet polymerase activity
In short: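 A single round of triplicate in vitro selection, including frozen incubation at −7 °C, was applied to PCR-built, transcribed mutant libraries of each subunit of a heterodimeric triplet polymerase ribozyme. Illumina sequencing of input and output libraries retained genotypes with ≥10 input reads and ≥1 read per output. Fitness is the base-2 logarithm of genotype enrichment divided by wild-type enrichment, from inverse-variance-weighted replicate averages.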

Variant	polymerase ribozyme fitness (log ratio)
G63U C94G	-1.4
G63U C102A	-3.78
G63U C114A	-3.04
G63U C114U	-3.25
G63U C123A	-0.845
G63U C124U	0.0528
G63U G69C	-4.76
G63U G77C C86G	-4.32
G63U G77U U78C	-2.41
G63U G93U	-1.76
G63U G110A	-1.81
G63U G110U	-3.12
G63U G113A G128U	-4.06
G63U G120A	-0.542
G63U G120U G135U	-2.56
G63U G128A	-3.29
G63U U78C A108G	-6.17
G63U U78G	-3.12
G63U U87A G122U	-1.97
G63U U92A	-5.39
C64A A66C U109C	-6.74
C64A A121C	-4.57
C64A C73G	-6.34
C64A C79U C102A A119G	-7.09

Variant	polymerase ribozyme fitness (log ratio)
C64A C82G A121C	-7.17
C64A C88G	-6.08
C64A U78C	-6.04
C64A U78C C123U	-4.49
C64A U78C U81G G120A	-6.42
C64A U78G	-6.68
C64A U87A	-6.3
C64A U133A	-6.16
C64G A84U U112A	-6.14
C64G C89U C123U	-5.79
C64G C98U	-6.14
C64G C102U C124U	-6.08
C64G U78C C115A	-5.99
C64G U112A	-4.73
C64G U112A U126C	-5.9
C64U A66U C124A	1.13
C64U A74C	-0.717
C64U A95G	-1.52
C64U A103G	-4.77
C64U A111C	0.336
C64U A111U	-3.24
C64U A118U	0.459
C64U C70G C79U A111U U112A C124A	-5.81
C64U C72U A90C C104A A111G G127A G135A	-4.26

Variant	polymerase ribozyme fitness (log ratio)
C64U C72U U106G G127C	-2.97
C64U C73A U131A	-0.288
C64U C76A G120U	-5.9
C64U C82U A95G	-0.455
C64U C82U C89A	-1.79
C64U C82U U109A G120U	-6.78
C64U C86U G110U G122A	-4.18
C64U C88U G122A	-0.852
C64U C94A	-0.615
C64U C99U	-2.88
C64U C114A	-1.4
C64U C114U	-1.47
C64U C114U U125A	-2.95
C64U C115A U125A	-0.872
C64U G71U C88U	-5.13
C64U G107A	-3.01
C64U G117A	-1.12
C64U G120A G135A	0.278
C64U G127C	-1.82
C64U G135U	-0.52
C64U U78C U96C C124U U126C U133G	-0.424
C64U U78G	-0.112
C64U U92C G113A G127U U131C	-3.48
C64U U106C	-0.52

Variant	polymerase ribozyme fitness (log ratio)
C64U U116G G117C	-2.86
G65A C88U	-5.19
G65C C123G	-3.83
G65U G71A	-4.69
A66C	-1.32
A66C A90G C114G	-4.05
A66C A91U	-4.65
A66C C70A	-3.75
A66C C94U	-0.92
A66C G69A	-3.84
A66C G69A C123U U126A	-4.63
A66C G113C	-3.98
A66C U129A	-2.92
A66C U130G U133A	-1.91
A66G	-0.466
A66G C72A C79A A84U	-4.61
A66G C79G G120A	-3.49
A66G C82U C88G C124U	-0.202
A66G G77A C94U C115A U132A	-0.858
A66G G127U	-1.49
A66G U109A	-6.35
A66G U116C	-2.62
A66U	-0.954
A66U A68G	-3.88

Variant	polymerase ribozyme fitness (log ratio)
A66U A68G C73A C82A	-4.09
A66U A83U	-1.4
A66U A84U C89U U112G	-2.3
A66U A84U G110C U130C	-5.62
A66U C72U C115G	-2.47
A66U C73A C89U	-1.72
A66U C73U A83U A100U C123U U125G	-2.19
A66U C79U	-0.834
A66U C85U G117A	-4.29
A66U C94A	-2.12
A66U C98U	-1.9
A66U C114A	-3.05
A66U C123A	0.285
A66U G93C C114G	-5.41
A66U G93C C115U U116C	-5.96
A66U U78C C124U	0.592
A66U U106A G117A	-2
A66U U125A	-2.11
A66U U130G	-1.71
U67A C123U	-5.81
U67A G69U	-5.08
U67C C85U	-4.67
U67C G69A U81C C104A G110C U112C	-8.47
U67G C80G G113A	-6.86

Variant	polymerase ribozyme fitness (log ratio)
A68C A84U U112G G117C	-7.28
A68C U116A A119U C124U	-7.83
A68G A84G	-3.98
A68G C73U	-2.42
A68G C82U	-2.87
A68G C86U	-2.68
A68G G69C C82U G113A G128U	-4.89
A68G G122A	-2.55
A68G U106A	-3.22
A68G U125A	-3.61
A68U C97A G120C	-6.59
A68U G117C	-6.92
G69A A74G	-5.42
G69A A84U C94U	-3.36
G69A C73G G120U	-5.64
G69A C73U U96G	-3.55
G69A C79A	-3.99
G69A C82G	-3.32
G69A C85A	-4.3
G69A C86A C99U G110C	-6.84
G69A C86G A121U	-1.34
G69A C89G	-5.32
G69A C102A U112G U132A	-5.6
G69A C123A	-1.81

Variant	polymerase ribozyme fitness (log ratio)
G69A C123G	-0.288
G69A C123U	-0.983
G69A C124A	-0.616
G69A G93A A95C A121U	-3.33
G69A G93U A111G G122A	-5.44
G69A G110C U129A	-7.59
G69A G113A G127C	-3.93
G69A G117A	-3.78
G69A G117C	-5.44
G69A G117U C124A	-4.19
G69A G122U	-2.62
G69A G127C	-3.47
G69A G128C	-5.29
G69A U78C A84C	-3.57
G69A U78G A118U	-1.62
G69A U116G	-4.55
G69A U125A	-3.21
G69A U132C	-2.86
G69C A118G	-1.23
G69C C72U	-0.189
G69C C85A	-2.84
G69C C85U	-1.8
G69C C88A	-2.15
